The record followed here is patent publication US20260035462A1 (Hoffmann-La Roche, published 2026).

The target of test [1] is T1, Trop2 on human cancer cell lines (T-47D, HPAF II, HeLa NLR, OVMANA) (human, UniProt P09758 27-323).
T1 construct: whole, on cells; also called Tumor-associated calcium signal transducer 2
T1 sequence (looked up): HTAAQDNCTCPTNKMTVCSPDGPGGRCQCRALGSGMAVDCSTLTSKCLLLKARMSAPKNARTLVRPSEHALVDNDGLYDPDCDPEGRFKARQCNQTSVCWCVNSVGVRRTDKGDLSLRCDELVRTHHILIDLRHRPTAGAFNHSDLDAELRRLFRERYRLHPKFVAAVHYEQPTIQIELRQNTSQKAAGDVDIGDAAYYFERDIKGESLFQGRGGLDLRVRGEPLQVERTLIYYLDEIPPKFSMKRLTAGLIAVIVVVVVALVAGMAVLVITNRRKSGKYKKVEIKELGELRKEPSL
As to the kind of experiment: flow cytometry on T-47D cells, FITC anti-human IgG Fcγ secondary antibody, median fluorescence.
Description: (§1) Target cells were harvested and transferred into a 96 well round bottom plate (100,000 cells per well). […] After the staining, the cells were washed twice with FACS buffer to remove unbound molecules. […] After 30 minutes incubation at 4° C. the cells were washed twice with FACS buffer to remove unbound antibodies. Finally, the cells were resuspended in 100 μl FACS buffer and analyzed by flow cytometry using BD Canto II.

Test [2] addresses T1, Trop2 on human cancer cell lines …. As to the kind of experiment: flow cytometry on OVMANA cells, FITC anti-human IgG Fcγ secondary antibody, median fluorescence.
Description: as §1
The target is the same in test [3]. The test can be described thus: flow cytometry on HPAF II cells, FITC anti-human IgG Fcγ secondary antibody, median fluorescence.
Description: as §1
Test [4] has the same target. The test can be described thus: flow cytometry on HeLa ST14 cells, FITC anti-human IgG Fcγ secondary antibody, median fluorescence.
Description: as §1
Test [5] has as its target T2, human CD3 on Jurkat NFAT reporter T cells (human, UniProt P07766 23-207).
T2 construct: whole, on cells; also called CD3 on Jurkat T cells
As to the kind of experiment: flow cytometry on Jurkat NFAT reporter T cells (human CD3), 1:4 titration from 50 nM, FITC anti-human IgG Fcγ secondary antibody, median fluorescence; sample not treated with Matriptase.
Description: (§2) Jurkat-NFAT reporter cells (GloResponse Jurkat NFAT-RE-luc2P; Promega #CS176501) are a human acute lymphatic leukemia reporter cell line with a NFAT promoter, expressing human CD3. The cells were cultured in RPMI1640, 2 g/l glucose, 2 g/l NaHCO₃, 10% FBS, 25 mM HEPES, 2 mM L-glutamin, 1×NEAA, 1× sodium-pyruvate at 0.1-0.5 mio cells per ml.
(§3) The next day, Jurkat cells were harvested and transferred into a 96 well round bottom plate (100,000 cells per well). […] After the staining, the cells were washed twice with FACS buffer to remove unbound molecules. […] After 30 minutes incubation at 4° C. the cells were washed twice with FACS buffer to remove unbound antibodies. Finally, the cells were resuspended in 100 μl FACS buffer and analyzed by flow cytometry using BD Canto II.

Test [6] has as its target T2, human CD3 on Jurkat NFAT reporter T …. The test can be described thus: flow cytometry on Jurkat NFAT reporter T cells (human CD3), 1:4 titration from 50 nM, FITC anti-human IgG Fcγ secondary antibody, median fluorescence; sample pre-incubated overnight with Matriptase (+M).
Description: as §2, §3
Test [7] has the same target. As to the kind of experiment: flow cytometry on Jurkat NFAT reporter T cells (human CD3), 1:4 titration from 50 nM, FITC anti-human IgG Fcγ secondary antibody, median fluorescence; sample not treated with Matriptase. This is another data set of the same source.
Description: (§4) Jurkat-NFAT reporter cells (GloResponse Jurkat NFAT-RE-luc2P; Promega #CS176501) are a human acute lymphatic leukemia reporter cell line with a NFAT promoter, expressing human CD3. The cells were cultured in RPMI1640, 2 g/l glucose, 2 g/l NaHCO₃, 10% FBS, 25 mM HEPES, 2 mM L-glutamin, 1×NEAA, 1×sodium-pyruvate at 0.1-0.5 mio cells per ml.
(§5) The next day, Jurkat cells were harvested and transferred into a 96 well round bottom plate (100′000 cells per well). […] After the staining, the cells were washed twice with FACS buffer to remove unbound molecules. […] After 30 min incubation at 4° C. the cells were washed twice with FACS buffer to remove unbound antibodies. Finally, the cells were resuspended in a 100 μl FACS buffer and analyzed by flow cytometry using BD Canto II.
Test [8] shares this target. The test can be described thus: flow cytometry on Jurkat NFAT reporter T cells (human CD3), 1:4 titration from 50 nM, FITC anti-human IgG Fcγ secondary antibody, median fluorescence; sample pre-incubated overnight with Matriptase (+M). The source holds these as a separate data set.
Description: as §4, §5

Read-outs that look alike come from different tables or passages of the source.

T2 sequence (P07766 23-207): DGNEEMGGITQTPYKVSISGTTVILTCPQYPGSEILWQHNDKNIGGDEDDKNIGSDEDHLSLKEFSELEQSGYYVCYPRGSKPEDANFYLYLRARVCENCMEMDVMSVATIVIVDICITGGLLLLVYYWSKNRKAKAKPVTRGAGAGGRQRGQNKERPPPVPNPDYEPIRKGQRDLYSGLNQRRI

B1: classical Trop2 TCB P1AI0692 (unmasked) (bispecific antibody, human IgG1, lambda, L234A L235A)
heavy 1: DIQMTQSPSSLSASVGDRVTITCKASQDVSIAVAWYQQKPGKAPKVLIYSASYRYTGVPDRFSGSGSGTDFTFTISSLQPEDIAVYYCQQHYITPLTFGGGTKVEIKSSASTKGPSVFPLAPSSKSTSGGTAALGCLVKDYFPEPVTVSWNSGALTSGVHTFPAVLQSSGLYSLSSVVTVPSSSLGTQTYICNVNHKPSNTKVDKKVEPKSCDKTHTCPPCPAPEAAGGPSVFLFPPKPKDTLMISRTPEVTCVVVDVSHEDPEVKFNWYVDGVEVHNAKTKPREEQYNSTYRVVSVLTVLHQDWLNGKEYKCKVSNKALGAPIEKTISKAKGQPREPQVCTLPPSRDELTKNQVSLSCAVKGFYPSDIAVEWESNGQPENNYKTTPPVLDSDGSFFLVSKLTVDKSRWQQGNVFSCSVMHEALHNHYTQKSLSLSPG
heavy 2: not shown
light 1: QAVVTQEPSLTVSPGGTVTLTCGSSTGAVTTSNYANWVQEKPGQAFRGLIGGTNKRAPGTPARFSGSLLGGKAALTLSGAQPEDEAEYYCALWYSNLWVFGGGTKLTVLGQPKAAPSVTLFPPSSKKLQANKATLVCLISDFYPGAVTVAWKADSSPVKAGVETTTPSKQSNNKYAASSYLSLTPEQWKSHRSYSCQVTHEGSTVEKTVAPTECS
light 2: QIQLVQSGHEVKKPGASVKVSCKASGYTFTNYGMNWVRQAPGQGLEWMGWINTKTGEPTYAEEFKGRFVFSLETSASTAYLQISSLKAEDMAMYFCGRGGYGSSYWYFDVWGQGTTVTVSSASVAAPSVFIFPPSDEQLKSGTASVVCLLNNFYPREAKVQWKVDNALQSGNSQESVTEQDSKDSTYSLSSTLTLSKADYEKHKVYACEVTHQGLSSPVTKSFNRGEC
notes: Tested with and without Matriptase pre-treatment; no mask; also called unmasked Trop2 TCB; unmasked classical TCB
For the molecule B1, the concentration for a half-maximal effect (EC50 (read off the curve)) in test [1] was about 0.9 nM; in test [2], about 1 nM; in test [3], about 1 nM; in test [4], about 1 nM; in test [5], about 1 nM; in test [6] it was about 1 nM.

B2: non-cleavable IGF-1R proTCB P1AH0969 (IGF-1R pro-TCB 2+1; non-cleavable) (bispecific antibody, human IgG1, lambda, L234A L235A)
heavy 1: EIVLTQSPATLSLSPGERATLSCRASQSVSSYLAWYQQKPGQAPRLLIYDASKRATGIPARFSGSGSGTDFTLTISSLEPEDFAVYYCQQRSKWPPWTFGQGTKVESKSSASTKGPSVFPLAPSSKSTSGGTAALGCLVKDYFPEPVTVSWNSGALTSGVHTFPAVLQSSGLYSLSSVVTVPSSSLGTQTYICNVNHKPSNTKVDKKVEPKSCDKTHTCPPCPAPEAAGGPSVFLFPPKPKDTLMISRTPEVTCVVVDVSHEDPEVKFNWYVDGVEVHNAKTKPREEQYNSTYRVVSVLTVLHQDWLNGKEYKCKVSNKALGAPIEKTISKAKGQPREPQVCTLPPSRDELTKNQVSLSCAVKGFYPSDIAVEWESNGQPENNYKTTPPVLDSDGSFFLVSKLTVDKSRWQQGNVFSCSVMHEALHNHYTQKSLSLSPG
heavy 2: not shown
light 1: B1 light 1
light 2: QVELVESGGGVVQPGRSQRLSCAASGFTFSSYGMHWVRQAPGKGLEWVAIIWFDGSSTYYADSVRGRFTISRDNSKNTLYLQMNSLRAEDTAVYFCARELGRRYFDLWGRGTLVSVSSASVAAPSVFIFPPSDEQLKSGTASVVCLLNNFYPREAKVQWKVDNALQSGNSQESVTEQDSKDSTYSLSSTLTLSKADYEKHKVYACEVTHQGLSSPVTKSFNRGEC
notes: H1L2 mask joined by a GS linker without a protease site; also called non-cleavable IGF-1R TCB construct; non-cleavable proTCB
Regarding B2, the binding result in test [7] is recorded as “no binding (tested: 50 nM)”.

B3: Matriptase pre-cleaved Trop2 proTCB (P1AI0690 after overnight incubation with Matriptase) (bispecific antibody)
heavy 1: B1 heavy 1
heavy 2: not shown
light 1: B1 light 1
light 2: B1 light 2
notes: also called Matriptase pre-cleaved (+M) Trop2 proTCB
Consider B3, for which the half-maximal effective concentration (EC50 (read off the curve)) in test [6] is about 0.9 nM.

B4: non-cleavable Trop2 proTCB P1AI0691 (Trop2 pro-TCB 2+1; non-cleavable) (bispecific antibody, human IgG1, lambda, L234A L235A)
heavy 1: B1 heavy 1
heavy 2: not shown
light 1: B1 light 1
light 2: B1 light 2
notes: H1L2 mask joined by a GS linker without a protease site; also called non-cleavable proTCB
For B4, the concentration giving a half-maximal response (EC50 (read off the curve)) is about 2 nM in test [1], about 3 nM in test [2], about 2 nM in test [3] and about 2 nM in test [4]. Also, in test [5], the binding result is listed as “no binding (tested: 50 nM)”.

B5: classical IGF-1R TCB P1AH0975 (unmasked) (bispecific antibody, human IgG1, lambda, L234A L235A)
heavy 1: B2 heavy 1
heavy 2: not shown
light 1: B1 light 1
light 2: B2 light 2
notes: Tested with and without Matriptase pre-treatment; no mask; also called unmasked classical IGF-1R TCB
For the molecule B5, the “EC50 (read off the curve)” value in test [7] was about 0.7 nM; in test [8], about 0.8 nM.

B6: Matriptase pre-cleaved IGF-1R proTCB (P1AH0943 after overnight incubation with human recombinant Matriptase) (bispecific antibody)
heavy 1: B2 heavy 1
heavy 2: not shown
light 1: B1 light 1
light 2: B2 light 2
notes: also called Matriptase pre-cleaved (+M) IGF-1R proTCB
On to B6, for which the “EC50 (read off the curve)” value in test [8] was about 0.9 nM.

B7: IGF-1R proTCB P1AH0943 (IGF-1R pro-TCB 2+1; matriptase; P035.093 PQARK H1L2 mask), not Matriptase pre-cleaved (bispecific antibody, human IgG1, lambda, L234A L235A)
heavy 1: B2 heavy 1
heavy 2: not shown
light 1: B1 light 1
light 2: B2 light 2
notes: Knob-into-hole 2+1 format with the anti-idiotypic H1L2 scFv mask fused through a PQARK linker to the VH of the CD3 Fab; also called not-Matriptase pre-cleaved IGF-1R proTCB; not pre-cleaved IGF-1R proTCB
Turning to B7, the binding result in test [7] is on record as “no binding (tested: 50 nM)”.

B8: Trop2 proTCB P1AI0690 (Trop2 pro-TCB 2+1; matriptase; P035.093 PQARK H1L2 mask), not Matriptase pre-cleaved (bispecific antibody, human IgG1, lambda, L234A L235A)
heavy 1: B1 heavy 1
heavy 2: not shown
light 1: B1 light 1
light 2: B1 light 2
notes: Knob-into-hole 2+1 format; also called masked Trop2 proTCB; not pre-cleaved Trop2 proTCB
B8: the “EC50 (read off the curve)” value in test [1] was about 2 nM; in test [2], about 1 nM; in test [3], about 1 nM; in test [4], about 1 nM. Further, in test [5], the binding result is reported as “no binding (tested: 50 nM)”.
